# Measurements from IntAct's records for PubMed 31515488.
# B1: Cyclic AMP-dependent transcription factor ATF-4 (Homo sapiens), P18848 (parent)
# chain: MTEMSFLSSEVLVGDLMSPFDQSGLGAEESLGLLDDYLEVAKHFKPHGFSSDKAKAGSSEWLAVDGLVSPSNNSKEDAFSGTDWMLEKMDLKEFDLDALLGIDDLETMPDDLLTTLDDTCDLFAPLVQETNKQPPQTVNPIGHLPESLTKPDQVAPFTFLQPLPLSPGVLSSTPDHSFSLELGSEVDITEGDRKPDYTAYVAMIPQCIKEEDTPSDNDSGICMSPESYLGSPQHSPSTRGSPNRSLPSPGVLCGSARPKPYDPPGEKMVAAKVKGEKLDKKLKKMEQNKTAATRYRQKKRAEQEALTGECKELEKKNEALKERADSLAKEIQYLKDLIEEVRKARGKKRVP
# B2: Baculoviral IAP repeat-containing protein 7 (Homo sapiens), Q96CA5-1 (parent)
# chain: MGPKDSAKCLHRGPQPSHWAAGDGPTQERCGPRSLGSPVLGLDTCRAWDHVDGQILGQLRPLTEEEEEEGAGATLSRGPAFPGMGSEELRLASFYDWPLTAEVPPELLAAAGFFHTGHQDKVRCFFCYGGLQSWKRGDDPWTEHAKWFPSCQFLLRSKGRDFVHSVQETHSQLLGSWDPWEEPEDAAPVAPSVPASGYPELPTPRREVQSESAQEPGGVSPAEAQRAWWVLEPPGARDVEAQLRRLQEERTCKVCLDRAVSIVFVPCGHLVCAECAPGLQLCPICRAPVRSRVRTFLS
# B3: STAM-binding protein (Homo sapiens), O95630 (parent)
# chain: MSDHGDVSLPPEDRVRALSQLGSAVEVNEDIPPRRYFRSGVEIIRMASIYSEEGNIEHAFILYNKYITLFIEKLPKHRDYKSAVIPEKKDTVKKLKEIAFPKAEELKAELLKRYTKEYTEYNEEKKKEAEELARNMAIQQELEKEKQRVAQQKQQQLEQEQFHAFEEMIRNQELEKERLKIVQEFGKVDPGLGGPLVPDLEKPSLDVFPTLTVSSIQPSDCHTTVRPAKPPVVDRSLKPGALSNSESIPTIDGLRHVVVPGRLCPQFLQLASANTARGVETCGILCGKLMRNEFTITHVLIPKQSAGSDYCNTENEEELFLIQDQQGLITLGWIHTHPTQTAFLSSVDLHTHCSYQMMLPESVAIVCSPKFQETGFFKLTDHGLEEISSCRQKGFHPHSKDPPLFCSCSHVTVVDRAVTITDLR
# partner: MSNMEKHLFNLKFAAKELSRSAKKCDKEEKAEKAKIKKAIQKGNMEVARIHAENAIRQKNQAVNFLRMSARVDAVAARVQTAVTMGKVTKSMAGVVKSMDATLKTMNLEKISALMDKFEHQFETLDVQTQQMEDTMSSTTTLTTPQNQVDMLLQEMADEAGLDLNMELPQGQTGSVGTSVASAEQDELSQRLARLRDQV
# B4: Progranulin (Homo sapiens), P28799 (parent)
# chain: MWTLVSWVALTAGLVAGTRCPDGQFCPVACCLDPGGASYSCCRPLLDKWPTTLSRHLGGPCQVDAHCSAGHSCIFTVSGTSSCCPFPEAVACGDGHHCCPRGFHCSADGRSCFQRSGNNSVGAIQCPDSQFECPDFSTCCVMVDGSWGCCPMPQASCCEDRVHCCPHGAFCDLVHTRCITPTGTHPLAKKLPAQRTNRAVALSSSVMCPDARSRCPDGSTCCELPSGKYGCCPMPNATCCSDHLHCCPQDTVCDLIQSKCLSKENATTDLLTKLPAHTVGDVKCDMEVSCPDGYTCCRLQSGAWGCCPFTQAVCCEDHIHCCPAGFTCDTQKGTCEQGPHQVPWMEKAPAHLSLPDPQALKRDVPCDNVSSCPSSDTCCQLTSGEWGCCPIPEAVCCSDHQHCCPQGYTCVAEGQCQRGSEIVAGLEKMPARRASLSHPRDIGCDQHTSCPVGQTCCPSLGGSWACCQLPHAVCCEDRQHCCPAGYTCNVKARSCEKEVVSAQPATFLARSPHVGVKDVECGEGHFCHDNQTCCRDNRQGWACCPYRQGVCCADRRHCCPAGFRCAARGTKCLRREAPRWDAPLRDPALRQLL
# partner: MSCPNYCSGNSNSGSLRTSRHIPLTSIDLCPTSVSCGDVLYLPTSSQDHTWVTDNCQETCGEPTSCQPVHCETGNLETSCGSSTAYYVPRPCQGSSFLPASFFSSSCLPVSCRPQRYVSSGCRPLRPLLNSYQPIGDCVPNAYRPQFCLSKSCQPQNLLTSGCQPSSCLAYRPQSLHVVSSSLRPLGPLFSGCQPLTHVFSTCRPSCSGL
# Variants of: B1
# Conditions: with ldoc1_human LDOC1, O95751
# ldoc1_human LDOC1, O95751, sequence (O95751 whole entry): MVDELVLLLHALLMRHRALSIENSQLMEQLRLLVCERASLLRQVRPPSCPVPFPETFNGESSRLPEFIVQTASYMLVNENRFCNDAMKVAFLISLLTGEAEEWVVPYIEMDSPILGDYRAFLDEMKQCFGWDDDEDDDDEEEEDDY
row,Variant,effect of a mutation on the interaction
1,E322D,disrupting interaction strength
2,T137S,with no effect
3,A324V,with no effect
4,P258A,with no effect

# Variants of: B1
# Conditions: with cc106_human CCDC106, Q9BWC9
# cc106_human CCDC106, Q9BWC9, sequence (Q9BWC9 whole entry): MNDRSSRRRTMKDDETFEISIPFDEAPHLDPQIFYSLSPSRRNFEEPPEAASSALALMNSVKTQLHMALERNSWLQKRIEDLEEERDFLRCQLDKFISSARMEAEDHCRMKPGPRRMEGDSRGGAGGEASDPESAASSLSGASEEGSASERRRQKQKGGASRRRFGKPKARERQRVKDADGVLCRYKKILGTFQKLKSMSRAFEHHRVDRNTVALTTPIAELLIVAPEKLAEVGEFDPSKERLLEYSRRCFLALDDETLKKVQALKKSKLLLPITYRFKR
row,Variant,effect of a mutation on the interaction
1,E322D,disrupting interaction strength
2,A324V,with no effect
3,P258A,with no effect

# Variants of: B1
# Conditions: with fbw1a_human BTRC
row,Variant,effect of a mutation on the interaction
1,E322D,disrupting interaction strength
2,T137S,with no effect
3,A324V,with no effect
4,P258A,with no effect

# Variants of: B1
# Conditions: with tthy_human TTR
row,Variant,effect of a mutation on the interaction
1,T137S,with no effect

# Variants of: B1
# Conditions: with cc106_human CCDC106, Q9BWC9
# Remark: another data set of the same source
row,Variant,effect of a mutation on the interaction
1,A324V,disrupting interaction strength

# Variants of: B2
# Conditions: with phf1_human PHF1, O43189
# phf1_human PHF1, O43189, sequence (O43189 whole entry): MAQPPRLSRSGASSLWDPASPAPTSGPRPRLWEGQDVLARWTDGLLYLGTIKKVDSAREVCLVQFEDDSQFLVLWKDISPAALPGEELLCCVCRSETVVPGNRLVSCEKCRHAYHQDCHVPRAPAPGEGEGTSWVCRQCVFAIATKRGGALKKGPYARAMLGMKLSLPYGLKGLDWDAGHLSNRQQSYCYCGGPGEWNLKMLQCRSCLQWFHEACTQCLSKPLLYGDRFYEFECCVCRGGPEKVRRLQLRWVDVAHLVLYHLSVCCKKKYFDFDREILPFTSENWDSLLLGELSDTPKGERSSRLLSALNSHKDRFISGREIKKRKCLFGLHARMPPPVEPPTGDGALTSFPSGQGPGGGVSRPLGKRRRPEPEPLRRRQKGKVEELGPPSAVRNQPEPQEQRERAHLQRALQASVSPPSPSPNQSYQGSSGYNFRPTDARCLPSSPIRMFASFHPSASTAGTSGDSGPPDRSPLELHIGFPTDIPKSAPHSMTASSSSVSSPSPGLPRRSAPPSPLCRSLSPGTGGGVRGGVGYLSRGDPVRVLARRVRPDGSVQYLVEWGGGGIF
row,Variant,effect of a mutation on the interaction
1,H164R,with no effect

# Variants of: B2
# Conditions: with ddx6_human DDX6, P26196
# ddx6_human DDX6, P26196, sequence (P26196 whole entry): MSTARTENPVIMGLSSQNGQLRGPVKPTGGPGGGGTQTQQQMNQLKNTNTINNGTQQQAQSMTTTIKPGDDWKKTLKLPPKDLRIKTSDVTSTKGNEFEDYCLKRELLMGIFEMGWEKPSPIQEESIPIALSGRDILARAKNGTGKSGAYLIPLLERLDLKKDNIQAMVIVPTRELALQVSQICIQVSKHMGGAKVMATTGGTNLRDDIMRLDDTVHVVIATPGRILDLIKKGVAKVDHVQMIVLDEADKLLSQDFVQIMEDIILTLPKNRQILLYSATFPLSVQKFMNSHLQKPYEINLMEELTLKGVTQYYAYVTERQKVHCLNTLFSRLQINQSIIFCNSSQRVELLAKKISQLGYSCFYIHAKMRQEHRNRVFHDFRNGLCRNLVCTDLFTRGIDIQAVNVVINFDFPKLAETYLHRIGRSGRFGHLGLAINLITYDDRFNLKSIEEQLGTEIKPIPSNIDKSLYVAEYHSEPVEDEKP
row,Variant,effect of a mutation on the interaction
1,H164R,with no effect

# Variants of: B2
# Conditions: with birc2_human BIRC2, Q13490
# birc2_human BIRC2, Q13490, sequence (Q13490 whole entry): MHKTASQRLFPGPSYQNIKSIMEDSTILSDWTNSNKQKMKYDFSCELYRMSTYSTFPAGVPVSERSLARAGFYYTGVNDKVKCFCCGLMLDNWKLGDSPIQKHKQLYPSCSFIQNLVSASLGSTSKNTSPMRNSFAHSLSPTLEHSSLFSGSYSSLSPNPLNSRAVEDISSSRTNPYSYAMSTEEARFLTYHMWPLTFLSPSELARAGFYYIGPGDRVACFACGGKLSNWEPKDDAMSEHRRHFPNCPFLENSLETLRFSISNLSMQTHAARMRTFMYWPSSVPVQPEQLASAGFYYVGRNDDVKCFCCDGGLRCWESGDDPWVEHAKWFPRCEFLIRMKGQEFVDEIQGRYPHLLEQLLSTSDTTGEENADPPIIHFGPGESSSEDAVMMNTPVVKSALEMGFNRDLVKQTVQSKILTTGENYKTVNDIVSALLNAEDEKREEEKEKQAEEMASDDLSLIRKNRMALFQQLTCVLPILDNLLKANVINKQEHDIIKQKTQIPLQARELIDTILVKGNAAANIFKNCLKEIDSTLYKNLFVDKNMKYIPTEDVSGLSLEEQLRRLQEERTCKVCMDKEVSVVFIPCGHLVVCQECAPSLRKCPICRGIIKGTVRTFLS
row,Variant,effect of a mutation on the interaction
1,H164R,with no effect

# Variants of: B2
# Conditions: with ddx6_human DDX6, P26196
# Remark: another data set of the same source
row,Variant,effect of a mutation on the interaction
1,H164R,with no effect

# Variants of: B2
# Conditions: with casp9_human CASP9, P55211
# casp9_human CASP9, P55211, sequence (P55211 whole entry): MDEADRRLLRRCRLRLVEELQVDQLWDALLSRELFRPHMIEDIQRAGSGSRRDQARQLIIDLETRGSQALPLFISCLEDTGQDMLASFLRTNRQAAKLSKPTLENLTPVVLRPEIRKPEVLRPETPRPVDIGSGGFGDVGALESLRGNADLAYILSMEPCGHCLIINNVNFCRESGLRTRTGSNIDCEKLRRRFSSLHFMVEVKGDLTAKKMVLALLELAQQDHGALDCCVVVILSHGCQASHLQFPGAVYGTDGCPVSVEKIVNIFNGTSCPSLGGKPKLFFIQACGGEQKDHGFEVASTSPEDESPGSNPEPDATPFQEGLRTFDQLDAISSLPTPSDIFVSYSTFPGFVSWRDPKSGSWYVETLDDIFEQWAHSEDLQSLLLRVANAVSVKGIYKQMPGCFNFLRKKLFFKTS
row,Variant,effect of a mutation on the interaction
1,H164R,with no effect

# Variants of: B2
# Conditions: with birc2_human BIRC2, Q13490
# Remark: another data set of the same source
row,Variant,effect of a mutation on the interaction
1,H164R,with no effect

# Variants of: B2
# Conditions: with phf1_human PHF1, O43189
# Remark: another data set of the same source
row,Variant,effect of a mutation on the interaction
1,H164R,with no effect

# Variants of: B2
# Conditions: with casp9_human CASP9, P55211
# Remark: another data set of the same source
row,Variant,effect of a mutation on the interaction
1,H164R,with no effect

# Variants of: B3
# Conditions: with chm1b_human CHMP1B
row,Variant,effect of a mutation on the interaction
1,Q155H,with no effect
2,R255H,with no effect

# Variants of: B4
# Conditions: with kr261_human KRTAP26-1, Q6PEX3
row,Variant,effect of a mutation on the interaction
1,D536E,with no effect
2,R433W,with no effect
